Measured values: patent US20250210128A1, “COMPUTER-IMPLEMENTED DESIGN OF PEPTIDE:RECEPTOR SIGNALING COMPLEXES FOR ENHANCED CHEMOTAXIS” (Ecole Polytechnique Federale de Lausanne (EPFL), priority 2022, published 2025)
Where a chain is given by its changes, count along the chain named. Names may count otherwise.

Key:
[1] = target: T1, CXCR4 (Homo sapiens, UniProt P61073, L41A); test: Calcium mobilization assay in transfected HEK 293T cells; format: cell-based; conditions: peptide-induced, point mutation, FIG. 15A
T1 construct: WT CXCR4 with an N-terminal 3×HA-tag, Gβ3-WT, and GNA15 sub-cloned into pcDNA3.1+ were obtained from the cDNA Resource Center; host or cells: HEK 293T
Experimental: (§1) 40,000 HEK 293T cells were transiently transfected with 50 ng HA3-CXCR4, 10 ng GNA15 in pcDNA3.1+. To equalize receptor surface expression, 75 ng of HA3-CXCR4 for the Cdes2 Design variant. Cells were first seeded in 100 uL DMEM (Gibco, ref: 41965-039) 10% FBS in a black-walled, clear-bottom 96-well plate coated with poly-lysine (Sigma, P6407-5MG). Directly after cell loading, 50 uL of the mixture containing 0.5 μL Lipofectamine 2000 (Invitrogen, ref: 11668-019) and the DNA was added on top of the cells. The cells were then left to incubate at 37° C., 5% CO2, 95% relative humidity for 20 h, after which, media was refreshed with 150 uL DMEM+10% FBS. Cells were assayed 48 h post-transfection. Cells were washed with 200 μL FLIPR6 buffer (HBSS+20 mM HEPES, pH 7.4), then incubated at 37° C., 5% CO2, 95% relative humidity for 2 h in 200 μL dye buffer according to manufacturer's protocol. Just before the assay, 5× concentrated peptide solutions were prepared in FLIPR6 buffer in a V-bottom 96-well plate. After incubation, peptide solutions were added at a rate of 16 μL/s after 30 s and fluorescence changes were monitored for 90 s after addition using microplate reader FlexStation3 (Molecular Devices). The maximum response after correction by the mock-transfected condition was averaged from three replicates. […]

[2] = target: T2, CXCR4 (Homo sapiens, UniProt P61073, N37A/S285M/Y45F); test: Gαi dissociation BRET (Gi activation) in transfected HEK 293T cells; format: cell-based; conditions: HEK cells; cell based assays reporting Gi activation and Ca2+ mobilization
T2 construct: WT CXCR4 with an N-terminal 3×HA-tag, Gβ3-WT, and GNA15 sub-cloned into pcDNA3.1+ were obtained from the cDNA Resource Center; host or cells: HEK 293T
Experimental: (§2) 40,000 HEK 293T cells were transiently transfected with HA3-CXCR4, Gαi1-91-Rluc8, Gβ3-WT and Gγ9-GFP2 in pcDNA3.1+ at a ratio of 10:1:10:5 respectively. Cells were first seeded in 100 μL DMEM 10% FBS in a poly-lysine coated, white-walled, white-bottom 96-well plate. Directly after cell loading, 50 μL of the mixture containing Lipofectamine 2000 and the DNA was added on top of the cells. The cells were then left to incubate at 37° C., 5% CO2, 95% relative humidity for 20 h, after which, 150 μL media was refreshed. Cells were assayed 48 h post-transfection. Cells were washed with 150 μL PBS, then 40 μL BRET buffer (HBSS, 0.2% Glucose) was added to each well. Coelenterazine 400a was first added at a final concentration of 2.5 μM and BRET ratios were measured once using Mithras^2 LB 943 plate reader. After the first measurement, […] agonist solution was added to each well and BRET ratios were measured for another 30 min using Mithras^2 LB 943 plate reader. Mock-transfected controls were subtracted from the data. Maximum values were then plotted against selected concentrations and fitted to a sigmoidal curve. (n=3, SD plotted)

[3] = tested on: CXCR4; test: as above; format: cell-based, human; conditions: for enhanced potency in G-coupling (Gi): designed receptor vs WT CXCR4 scaffold, against WT CXCL12 peptide
Experimental: as §2

[4] = tested on: CXCR4; test: Calcium mobilization assay in transfected HEK 293T cells; format: cell-based, human; conditions: designed receptor vs WT CXCR4, CXCL12-derived peptide, HEK cells
Experimental: as §1

T2 sequence (P61073 whole entry N37A/Y45F/S285M): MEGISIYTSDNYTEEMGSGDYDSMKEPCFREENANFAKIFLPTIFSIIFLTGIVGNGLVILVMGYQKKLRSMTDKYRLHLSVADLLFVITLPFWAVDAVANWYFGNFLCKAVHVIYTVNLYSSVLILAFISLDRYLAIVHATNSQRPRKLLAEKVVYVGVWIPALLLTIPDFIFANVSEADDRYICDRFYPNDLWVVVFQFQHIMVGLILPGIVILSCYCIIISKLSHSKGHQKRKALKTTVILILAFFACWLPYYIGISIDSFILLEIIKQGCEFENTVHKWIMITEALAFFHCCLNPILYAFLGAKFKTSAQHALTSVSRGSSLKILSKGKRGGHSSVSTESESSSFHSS

B1: L41A CXCR4: CXCR4 point mutant L41A (protein)
chain: MEGISIYTSDNYTEEMGSGDYDSMKEPCFREENANFNKIFAPTIYSIIFLTGIVGNGLVILVMGYQKKLRSMTDKYRLHLSVADLLFVITLPFWAVDAVANWYFGNFLCKAVHVIYTVNLYSSVLILAFISLDRYLAIVHATNSQRPRKLLAEKVVYVGVWIPALLLTIPDFIFANVSEADDRYICDRFYPNDLWVVVFQFQHIMVGLILPGIVILSCYCIIISKLSHSKGHQKRKALKTTVILILAFFACWLPYYIGISIDSFILLEIIKQGCEFENTVHKWISITEALAFFHCCLNPILYAFLGAKFKTSAQHALTSVSRGSSLKILSKGKRGGHSSVSTESESSSFHSS
[1]
  calcium release: Enhanced

B2: Cdes1: first-generation combinatorial design CXCR4 receptor variant with binding hotspot motif at TM1/7 interface (protein)
chain: B1 chain with N37A, A41L, Y45F, S285M
modifications: Cdes1
[2]
  sensitivity to CXCL12: enhanced sensitivity

B3: Ldes: CXCR4 variant assembled from activating point mutations on TM1, TM3 and ECL2 of the point mutant library (protein)
chain: B1 chain with A41I, H113N, S178A
modifications: Ldes
[3]
  enhanced potency in G-coupling (Gi): ~11 fold over WT
[3]; designed receptor vs starting CXCR4 WT scaffold, WT CXCL12 peptide
  higher Gi efficacy: 120%

B4: CLdes: CXCR4 variant combining the H113N mutation with the Cdes2 design (protein)
chain: B1 chain with N37A, A41L, Y45F, H113N, S178F, D181Q, I185V, S285M
modifications: CLdes
notes: CXCR4 variant combining the H113N mutation with the Cdes2 design
[3]
  enhanced potency in G-coupling (Gi): more than 9 fold over WT

B5: Cdes2: second-generation combinatorial design CXCR4 variant combining the 2 designed binding hotspot motifs (protein)
chain: B1 chain with N37A, A41L, Y45F, S178F, D181Q, I185V, S285M
modifications: Cdes2
[4]
  enhanced potency in calcium mobilization: 3.1 fold over WT
[3]
  enhanced potency in G-coupling (Gi): 3.2 fold over WT
